The values that follow come from paper PMC8024975.

For this test, the target named is P. aeruginosa ClpGGI WT (P. aeruginosa).

Molecule FLRYLKASKVPLN [peptide 134] showed an ATPase activity of 1 μM ClpGGI with increasing Pep134 concentrations (saturation of the stimulation at 25 μM peptide) (ATP min^−1 monomer^−1) of 108.
